Paper PMC8602277, “Crystal structures of the elusive Rhizobium etliL-asparaginase reveal a peculiar active site” (Nature Communications, 2021)

Columns and labels:
[1] = substrate: NC(=O)C[C@H](N)C(=O)O; assay: ITC, multiple injection mode, Michaelis-Menten fit; type: biochemical, Rhizobium etli; details: 30 mM phosphate pH 9.0, 37 °C, Zn-containing native enzyme, Hill coefficient 1.6 by separate Hill fit
[2] = target: the molecule itself; assay: SEC; analytical Superdex75 10/300 GL column, 50 mM phosphate buffer pH 7.5 with 20 mM NaCl, room temperature
[3] = target: the molecule itself; assay: crystal structure; WT ReAV in four crystal forms (OP, MP1, MP2, MC) plus the S-SAD START data set; one or two dimers in the asymmetric unit; crystals grown at 19 °C by hanging drop vapor diffusion

B1: ReAV (inducible R. etli L-asparaginase, AnsA) (Rhizobium etli CFN 42) (protein)
chain: MTPSEDFVVTDRGGIVENSHRVHAAVVDAKGRLLYALGNPTRMTLARSAAKPAQALAILETEGVAGYGFDDADIALMCASHSSEDRHIARTRAMLSKIKAEEADLRCGGHPSLSEMVNRSWIKQDFIPTAVCSNCSGKHVGMLAGARAIGAGTDGYHLPDHPMQGRVKRTVAELCDLDAGDVEWGTDGCNLPTPAFPLDRLGRIYAKLASAADGSDAGEGQSTRCAALAHIFRAMARHPEMVAGEGRYCTMLMRAFDGALVGKLGADASYAIGVRASDATRQLGTDGALGISVKIEDGNLEMLYAVVTELLERLGIGSPDVRSQLASFHHPQRVNTMGVTTGGVSFPFKLRGSKSNVDDPRLAAVAR
notes: full-length wild type, 367 residues, expressed in E. coli BL21 STAR (DE3) from pET151-D-TOPO, N-terminal His6-tag cut with TEV protease; homodimer, one Zn2+ per subunit
Q: B1 was tested. Which Km [1] did it give?
A: 4.2 ± 0.3 mM

Q: What about the kcat [1] of the same protein?
A: 438 ± 32 s⁻¹

B2: ReAV K51A mutant (enzyme, Rhizobium etli (strain CFN 42))
chain: MTPSEDFVVTDRGGIVENSHRVHAAVVDAKGRLLYALGNPTRMTLARSAAAPAQALAILETEGVAGYGFDDADIALMCASHSSEDRHIARTRAMLSKIKAEEADLRCGGHPSLSEMVNRSWIKQDFIPTAVCSNCSGKHVGMLAGARAIGAGTDGYHLPDHPMQGRVKRTVAELCDLDAGDVEWGTDGCNLPTPAFPLDRLGRIYAKLASAADGSDAGEGQSTRCAALAHIFRAMARHPEMVAGEGRYCTMLMRAFDGALVGKLGADASYAIGVRASDATRQLGTDGALGISVKIEDGNLEMLYAVVTELLERLGIGSPDVRSQLASFHHPQRVNTMGVTTGGVSFPFKLRGSKSNVDDPRLAAVAR
notes: inducible L-asparaginase ReAV (AnsA) of Rhizobium etli strain CFN 42; printed length 367 residues; source: E. coli BL21 STAR (DE3), purified as the WT protein; not shown: His6, N-terminal, cleaved
Q: B2 was tested. Which “stoichiometry N” value [2] did it give?
A: 2

B3: ReAV C135A mutant (enzyme, Rhizobium etli (strain CFN 42))
chain: MTPSEDFVVTDRGGIVENSHRVHAAVVDAKGRLLYALGNPTRMTLARSAAKPAQALAILETEGVAGYGFDDADIALMCASHSSEDRHIARTRAMLSKIKAEEADLRCGGHPSLSEMVNRSWIKQDFIPTAVCSNASGKHVGMLAGARAIGAGTDGYHLPDHPMQGRVKRTVAELCDLDAGDVEWGTDGCNLPTPAFPLDRLGRIYAKLASAADGSDAGEGQSTRCAALAHIFRAMARHPEMVAGEGRYCTMLMRAFDGALVGKLGADASYAIGVRASDATRQLGTDGALGISVKIEDGNLEMLYAVVTELLERLGIGSPDVRSQLASFHHPQRVNTMGVTTGGVSFPFKLRGSKSNVDDPRLAAVAR
notes: as for B2
Q: B3 was tested. Which “stoichiometry N” value [2] did it give?
A: 2

B4: ReAV K263A mutant (enzyme, Rhizobium etli (strain CFN 42))
chain: MTPSEDFVVTDRGGIVENSHRVHAAVVDAKGRLLYALGNPTRMTLARSAAKPAQALAILETEGVAGYGFDDADIALMCASHSSEDRHIARTRAMLSKIKAEEADLRCGGHPSLSEMVNRSWIKQDFIPTAVCSNCSGKHVGMLAGARAIGAGTDGYHLPDHPMQGRVKRTVAELCDLDAGDVEWGTDGCNLPTPAFPLDRLGRIYAKLASAADGSDAGEGQSTRCAALAHIFRAMARHPEMVAGEGRYCTMLMRAFDGALVGALGADASYAIGVRASDATRQLGTDGALGISVKIEDGNLEMLYAVVTELLERLGIGSPDVRSQLASFHHPQRVNTMGVTTGGVSFPFKLRGSKSNVDDPRLAAVAR
notes: as for B2
Q: Which “stoichiometry N” value [2] does the source give for B4 here?
A: 2

B5: inducible Rhizobium etli L-asparaginase ReAV, wild type (enzyme, Rhizobium etli (strain CFN 42))
chain: MTPSEDFVVTDRGGIVENSHRVHAAVVDAKGRLLYALGNPTRMTLARSAAKPAQALAILETEGVAGYGFDDADIALMCASHSSEDRHIARTRAMLSKIKAEEADLRCGGHPSLSEMVNRSWIKQDFIPTAVCSNCSGKHVGMLAGARAIGAGTDGYHLPDHPMQGRVKRTVAELCDLDAGDVEWGTDGCNLPTPAFPLDRLGRIYAKLASAADGSDAGEGQSTRCAALAHIFRAMARHPEMVAGEGRYCTMLMRAFDGALVGKLGADASYAIGVRASDATRQLGTDGALGISVKIEDGNLEMLYAVVTELLERLGIGSPDVRSQLASFHHPQRVNTMGVTTGGVSFPFKLRGSKSNVDDPRLAAVAR
modifications: Cys249 most likely oxidized, modeled as S-hydroxycysteine in the crystal structures
notes: inducible L-asparaginase ReAV (AnsA) of Rhizobium etli strain CFN 42, encoded on plasmid p42e; printed length 367 residues; also called WT ReAV; AnsA; source: E. coli BL21 STAR (DE3), purified (HisTrap Ni, TEV cleavage, second HisTrap Ni, Superdex 200); not shown: His6, N-terminal, cleaved
Q: B5 was tested. Which “stoichiometry N” value [3] did it give?
A: 2

B6: ReAV S48A mutant (enzyme, Rhizobium etli (strain CFN 42))
chain: MTPSEDFVVTDRGGIVENSHRVHAAVVDAKGRLLYALGNPTRMTLARAAAKPAQALAILETEGVAGYGFDDADIALMCASHSSEDRHIARTRAMLSKIKAEEADLRCGGHPSLSEMVNRSWIKQDFIPTAVCSNCSGKHVGMLAGARAIGAGTDGYHLPDHPMQGRVKRTVAELCDLDAGDVEWGTDGCNLPTPAFPLDRLGRIYAKLASAADGSDAGEGQSTRCAALAHIFRAMARHPEMVAGEGRYCTMLMRAFDGALVGKLGADASYAIGVRASDATRQLGTDGALGISVKIEDGNLEMLYAVVTELLERLGIGSPDVRSQLASFHHPQRVNTMGVTTGGVSFPFKLRGSKSNVDDPRLAAVAR
notes: inducible L-asparaginase ReAV (AnsA) of Rhizobium etli strain CFN 42; printed length 367 residues; CD spectra indicate incorrect folding or strong structural distortion; source: E. coli BL21 STAR (DE3), mostly in inclusion bodies, soluble part purified as the WT protein; not shown: His6, N-terminal, cleaved
Q: Which “stoichiometry N” value [2] does the source give for B6 here?
A: 2

B7: ReAV S80A mutant (enzyme, Rhizobium etli (strain CFN 42))
chain: MTPSEDFVVTDRGGIVENSHRVHAAVVDAKGRLLYALGNPTRMTLARSAAKPAQALAILETEGVAGYGFDDADIALMCAAHSSEDRHIARTRAMLSKIKAEEADLRCGGHPSLSEMVNRSWIKQDFIPTAVCSNCSGKHVGMLAGARAIGAGTDGYHLPDHPMQGRVKRTVAELCDLDAGDVEWGTDGCNLPTPAFPLDRLGRIYAKLASAADGSDAGEGQSTRCAALAHIFRAMARHPEMVAGEGRYCTMLMRAFDGALVGKLGADASYAIGVRASDATRQLGTDGALGISVKIEDGNLEMLYAVVTELLERLGIGSPDVRSQLASFHHPQRVNTMGVTTGGVSFPFKLRGSKSNVDDPRLAAVAR
notes: as for B6
Q: For B7, which “stoichiometry N” value [2] is on record?
A: 2
